Test results published in patent US20200093883A1 (XIGEN INFLAMMATION, published 2020).
Square brackets hold non-standard residues; d marks the D form. Ends that are not written are not given here.

Biological target: c-Jun N-terminal kinase (JNK) in primary mouse cortical neurons (mouse)
Assay: cell-based or functional assay

B1: JNK inhibitor according to SEQ ID NO: 172 ("XG-104") (peptide)
peptide: [dR]KKR[dR]QRR[dR]RP[dK]RP[dA]TLNL[dF]-NH2
modifications: N-terminus assumed
SMILES: CC(C)C[C@H](NC(=O)[C@H](CC(N)=O)NC(=O)[C@H](CC(C)C)NC(=O)[C@@H](NC(=O)[C@@H](C)NC(=O)[C@@H]1CCCN1C(=O)[C@H](CCCNC(=N)N)NC(=O)[C@@H](CCCCN)NC(=O)[C@@H]1CCCN1C(=O)[C@H](CCCNC(=N)N)NC(=O)[C@@H](CCCNC(=N)N)NC(=O)[C@H](CCCNC(=N)N)NC(=O)[C@H](CCCNC(=N)N)NC(=O)[C@H](CCC(N)=O)NC(=O)[C@@H](CCCNC(=N)N)NC(=O)[C@H](CCCNC(=N)N)NC(=O)[C@H](CCCCN)NC(=O)[C@H](CCCCN)NC(=O)[C@H](N)CCCNC(=N)N)[C@@H](C)O)C(=O)N[C@H](Cc1ccccc1)C(N)=O
JNK activity (ratio pJNK/JNK, immunoblot), neurons exposed to 2 µM Aβ42, pre-treatment with 5 µM XG-104: decrease: 29.2% | JNK activity (ratio pJNK/JNK, immunoblot), neurons exposed to 2 µM Aβ42, pre-treatment with 10 µM XG-104: decrease: 60% | JNK activity (ratio pJNK/JNK, immunoblot), neurons exposed to 25 µM Aβ42, pre-treatment with 5 µM XG-104: decrease: 17.5% | JNK activity (ratio pJNK/JNK, immunoblot), neurons exposed to 25 µM Aβ42, pre-treatment with 10 µM XG-104: decrease: 59.6%
